One block for each molecule: values may come before it.
Legend:
[1] = target: T1, TnsD wt (Escherichia coli (transposon Tn7)) (UniProt P13991); assay: EMSA; conditions: Gel-shift buffer not given (as described in ref. 6); TnsD stored in 500 mM KCl, 50 mM Tris-HCl pH 8.0, 1 mM EDTA, 2 mM DTT, 25% glycerol
T1 sequence: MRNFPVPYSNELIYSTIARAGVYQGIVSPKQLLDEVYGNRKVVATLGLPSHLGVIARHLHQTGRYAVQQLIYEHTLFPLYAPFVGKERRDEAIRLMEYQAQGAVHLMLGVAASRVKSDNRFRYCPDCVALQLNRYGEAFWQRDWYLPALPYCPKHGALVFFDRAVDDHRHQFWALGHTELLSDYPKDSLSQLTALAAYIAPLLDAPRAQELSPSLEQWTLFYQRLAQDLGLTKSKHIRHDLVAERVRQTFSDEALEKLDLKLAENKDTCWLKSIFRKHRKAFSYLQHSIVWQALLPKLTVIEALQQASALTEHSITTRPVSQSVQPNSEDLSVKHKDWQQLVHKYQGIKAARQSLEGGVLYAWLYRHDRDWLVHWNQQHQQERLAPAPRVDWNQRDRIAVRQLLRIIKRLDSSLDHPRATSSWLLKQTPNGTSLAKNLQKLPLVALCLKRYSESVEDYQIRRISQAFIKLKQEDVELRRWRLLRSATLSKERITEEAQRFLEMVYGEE

RB = assay: two-hybrid; yeast two-hybrid (ProQuest Two-Hybrid System); TnsD in pDBLeu (Gal4-DB), TnsC in pPC86 (Gal4-AD); read-out β-galactosidase activity; empty vectors gave 0.075
Sequence of RB (P06400 2-928): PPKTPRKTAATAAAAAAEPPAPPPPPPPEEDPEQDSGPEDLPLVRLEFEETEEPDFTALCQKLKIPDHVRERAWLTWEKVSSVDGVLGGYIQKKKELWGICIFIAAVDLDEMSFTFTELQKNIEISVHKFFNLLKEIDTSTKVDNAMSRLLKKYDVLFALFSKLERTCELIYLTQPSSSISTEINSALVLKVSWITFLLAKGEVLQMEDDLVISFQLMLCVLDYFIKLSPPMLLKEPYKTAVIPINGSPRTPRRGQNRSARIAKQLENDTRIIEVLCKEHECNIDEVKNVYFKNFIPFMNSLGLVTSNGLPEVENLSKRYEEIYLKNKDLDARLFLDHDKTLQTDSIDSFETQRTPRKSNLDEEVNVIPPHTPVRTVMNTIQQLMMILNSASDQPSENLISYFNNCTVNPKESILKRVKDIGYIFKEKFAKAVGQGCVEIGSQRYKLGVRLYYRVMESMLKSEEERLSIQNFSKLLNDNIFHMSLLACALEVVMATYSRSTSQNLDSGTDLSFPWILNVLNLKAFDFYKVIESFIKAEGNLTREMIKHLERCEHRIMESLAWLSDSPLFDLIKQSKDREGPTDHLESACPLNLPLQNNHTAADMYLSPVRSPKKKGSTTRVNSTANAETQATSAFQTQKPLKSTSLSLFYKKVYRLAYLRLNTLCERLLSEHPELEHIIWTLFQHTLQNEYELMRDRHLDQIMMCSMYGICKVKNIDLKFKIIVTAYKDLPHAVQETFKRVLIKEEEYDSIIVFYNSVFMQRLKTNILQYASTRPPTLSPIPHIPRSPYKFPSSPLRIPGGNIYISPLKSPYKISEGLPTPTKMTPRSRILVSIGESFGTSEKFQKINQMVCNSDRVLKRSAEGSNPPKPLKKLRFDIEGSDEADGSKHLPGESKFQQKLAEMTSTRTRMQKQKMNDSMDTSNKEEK

Jun = assay: as above
Sequence of Jun (P05627 whole entry): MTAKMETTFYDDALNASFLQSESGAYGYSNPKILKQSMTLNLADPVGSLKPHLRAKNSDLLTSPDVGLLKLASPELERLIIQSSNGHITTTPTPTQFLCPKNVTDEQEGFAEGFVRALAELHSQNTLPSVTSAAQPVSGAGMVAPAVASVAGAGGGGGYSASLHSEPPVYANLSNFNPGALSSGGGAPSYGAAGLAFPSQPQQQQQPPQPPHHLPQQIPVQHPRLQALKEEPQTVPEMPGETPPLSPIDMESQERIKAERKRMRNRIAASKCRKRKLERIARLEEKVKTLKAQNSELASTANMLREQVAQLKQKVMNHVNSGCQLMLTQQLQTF

TnsD (1 to 507) wt = target: T2, TnsD (1 to 507) wt (E. coli (transposon Tn7), UniProt P13991 1-508); assay: as above; conditions: partners not purified
T2 construct: TnsD, target site-selector protein of the bacterial transposon Tn7, residues 1 to 507 (full-length TnsD is 507 aa); TnsD was cloned into pDBLeu (ProQuest Two-Hybrid System); also called full-length TnsD; source: yeast two-hybrid fusion
T2 sequence (looked up): T1 sequence

TnsD (1 to 309) = target: T3, TnsD (1 to 309) (E. coli (transposon Tn7), UniProt P13991 1-309); assay: as above; conditions: partners not purified
T3 construct: TnsD of transposon Tn7, residues 1 to 309; source: yeast two-hybrid fusion
T3 sequence (looked up): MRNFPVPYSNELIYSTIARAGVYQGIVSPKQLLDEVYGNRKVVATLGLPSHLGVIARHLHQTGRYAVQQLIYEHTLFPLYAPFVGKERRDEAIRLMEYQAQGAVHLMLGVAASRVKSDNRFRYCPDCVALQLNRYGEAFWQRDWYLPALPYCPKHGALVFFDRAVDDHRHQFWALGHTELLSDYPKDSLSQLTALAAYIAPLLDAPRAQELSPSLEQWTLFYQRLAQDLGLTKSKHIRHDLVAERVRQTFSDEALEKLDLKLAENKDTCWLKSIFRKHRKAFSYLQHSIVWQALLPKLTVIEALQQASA

TnsD (1 to 350) = target: T4, TnsD (1 to 350) (E. coli (transposon Tn7), UniProt P13991 1-350); assay: as above; conditions: partners not purified
T4 construct: TnsD of transposon Tn7, residues 1 to 350; source: yeast two-hybrid fusion
T4 sequence (looked up): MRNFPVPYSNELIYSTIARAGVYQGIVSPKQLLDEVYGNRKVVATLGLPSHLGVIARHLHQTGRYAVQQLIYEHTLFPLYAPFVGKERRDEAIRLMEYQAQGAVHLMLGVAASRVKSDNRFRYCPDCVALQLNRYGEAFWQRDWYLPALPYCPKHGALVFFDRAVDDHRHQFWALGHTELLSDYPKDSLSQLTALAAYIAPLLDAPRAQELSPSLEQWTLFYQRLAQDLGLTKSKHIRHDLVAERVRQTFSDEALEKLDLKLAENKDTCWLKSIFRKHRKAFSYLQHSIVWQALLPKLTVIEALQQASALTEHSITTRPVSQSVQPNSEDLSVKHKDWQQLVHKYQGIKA

TnsD (1 to 399) = target: T5, TnsD (1 to 399) (E. coli (transposon Tn7), UniProt P13991 1-399); assay: as above; conditions: partners not purified
T5 construct: TnsD of transposon Tn7, residues 1 to 399; source: yeast two-hybrid fusion
T5 sequence (looked up): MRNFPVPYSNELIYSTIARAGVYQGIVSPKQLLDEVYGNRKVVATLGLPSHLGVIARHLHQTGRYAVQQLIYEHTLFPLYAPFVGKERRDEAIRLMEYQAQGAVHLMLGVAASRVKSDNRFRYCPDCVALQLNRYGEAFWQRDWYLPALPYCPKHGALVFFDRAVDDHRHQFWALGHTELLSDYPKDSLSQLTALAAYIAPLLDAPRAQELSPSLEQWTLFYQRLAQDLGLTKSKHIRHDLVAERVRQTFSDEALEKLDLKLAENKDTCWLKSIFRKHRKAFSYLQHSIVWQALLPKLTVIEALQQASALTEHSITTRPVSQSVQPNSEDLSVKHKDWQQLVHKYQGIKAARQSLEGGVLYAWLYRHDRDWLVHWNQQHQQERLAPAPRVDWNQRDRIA

TnsD (1 to 375) = target: T6, TnsD (1 to 375) (E. coli (transposon Tn7), UniProt P13991 1-375); assay: as above; conditions: partners not purified
T6 construct: TnsD of transposon Tn7, residues 1 to 375; source: yeast two-hybrid fusion
T6 sequence (looked up): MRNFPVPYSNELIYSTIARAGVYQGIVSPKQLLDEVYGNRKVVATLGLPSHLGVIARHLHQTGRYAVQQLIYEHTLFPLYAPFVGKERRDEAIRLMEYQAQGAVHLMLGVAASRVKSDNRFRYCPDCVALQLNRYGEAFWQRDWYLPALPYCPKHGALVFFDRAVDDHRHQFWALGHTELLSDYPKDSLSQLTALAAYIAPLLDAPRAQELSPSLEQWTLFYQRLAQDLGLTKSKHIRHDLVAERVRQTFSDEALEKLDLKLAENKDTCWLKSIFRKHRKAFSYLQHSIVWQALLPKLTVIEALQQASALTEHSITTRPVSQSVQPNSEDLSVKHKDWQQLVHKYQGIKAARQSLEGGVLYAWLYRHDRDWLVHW

Molecule: CCGCGTAACCGGGCAAAATCGGTTACGGTTGAGTAA (double strand) [attTn7 +48 mutant]
- binding signal (relative to wt site) [1]: 0.5

Molecule: CCGCGTAACCTGGCAACATCGGTTACGGTTGAGTAA (double strand) [attTn7 +42 mutant]
- binding signal (relative to wt site) [1]: < 0.2

Molecule: CCGCGTAACCTGGCAAAATCGTTTACGGTTGAGTAA (double strand) [attTn7 +37 mutant]
- binding signal (relative to wt site) [1]: 0.5

Molecule: CCGCGTAACCTGGCAAAATCGGTTACGGGTGAGTAA (double strand) [attTn7 +30 mutant]
- binding signal (relative to wt site) [1]: 0.5

- β-galactosidase activity (RB): 1
Molecule: E2F1 (natural protein)

Molecule: CCGCTTAACCTGGCAAAATCGGTTACGGTTGAGTAA (double strand) [attTn7 +54 mutant]
- binding signal (relative to wt site) [1]: < 0.2

Molecule: CCGCGTCACCTGGCAAAATCGGTTACGGTTGAGTAA (double strand) [attTn7 +52 mutant]
- binding signal (relative to wt site) [1]: 0.5

Molecule: CCGCGTAACCTGGCAAAATCGGTTAAGGTTGAGTAA (double strand) [attTn7 +33 mutant]
- binding signal (relative to wt site) [1]: < 0.2

Molecule: CCGCGTAACCTGGCAAAATCGGTTACGTTTGAGTAA (double strand) [attTn7 +31 mutant]
- binding signal (relative to wt site) [1]: < 0.2

- β-galactosidase activity (Jun): 5
Molecule: Fos (natural protein)

Molecule: CCGCGTAACCTGGAAAAATCGGTTACGGTTGAGTAA (double strand) [attTn7 +45 mutant]
- binding signal (relative to wt site) [1]: < 0.2

Molecule: CCGCGTACCCTGGCAAAATCGGTTACGGTTGAGTAA (double strand) [attTn7 +51 mutant]
- binding signal (relative to wt site) [1]: < 0.2

Molecule: CCGCGTAACCTGGCACAATCGGTTACGGTTGAGTAA (double strand) [attTn7 +43 mutant]
- binding signal (relative to wt site) [1]: < 0.2

- β-galactosidase activity (TnsD (1 to 507) wt): 1
B1: TnsC (1 to 384) (domain or fragment, E. coli (transposon Tn7), UniProt P05846 1-384, looked up)
chain: MSATRIQAVYRDTGVEAYRDNPFIEALPPLQESVNSAASLKSSLQLTSSDLQKSRVIRAHTICRIPDDYFQPLGTHLLLSERISVMIRGGYVGRNPKTGDLQKHLQNGYERVQTGELETFRFEEARSTAQSLLLIGCSGSGKTTSLHRILATYPQVIYHRELNVEQVVYLKIDCSHNGSLKEICLNFFRALDRALGSNYERRYGLKRHGIETMLALMSQIANAHALGLLVIDEIQHLSRSRSGGSQEMLNFFVTMVNIIGVPVMLIGTPKAREIFEADLRSARRGAGFGAIFWDPIQQTQRGKPNQEWIAFTDNLWQLQLLQRKDALLSDEVRDVWYELSQGVMDIVVKLFVLAQLRALALGNERITAGLLRQVYQDELKPVHP
notes: TnsC of transposon Tn7, residues 1 to 384; also called TnsC with deletion of 171 amino acids from the C terminus; source: yeast two-hybrid fusion

- β-galactosidase activity (TnsD (1 to 309)): 4.5
- β-galactosidase activity (TnsD (1 to 350)): 4.5
- β-galactosidase activity (TnsD (1 to 399)): 4.5
- β-galactosidase activity (TnsD (1 to 507) wt): 1
- β-galactosidase activity (TnsD (1 to 375)): 5
B2: TnsC (1 to 555) wt (natural protein, E. coli (transposon Tn7), UniProt P05846 1-555, looked up)
chain: MSATRIQAVYRDTGVEAYRDNPFIEALPPLQESVNSAASLKSSLQLTSSDLQKSRVIRAHTICRIPDDYFQPLGTHLLLSERISVMIRGGYVGRNPKTGDLQKHLQNGYERVQTGELETFRFEEARSTAQSLLLIGCSGSGKTTSLHRILATYPQVIYHRELNVEQVVYLKIDCSHNGSLKEICLNFFRALDRALGSNYERRYGLKRHGIETMLALMSQIANAHALGLLVIDEIQHLSRSRSGGSQEMLNFFVTMVNIIGVPVMLIGTPKAREIFEADLRSARRGAGFGAIFWDPIQQTQRGKPNQEWIAFTDNLWQLQLLQRKDALLSDEVRDVWYELSQGVMDIVVKLFVLAQLRALALGNERITAGLLRQVYQDELKPVHPMLEALRSGIPERIARYSDLVVPEIDKRLIQLQLDIAAIQEQTPEEKALQELDTEDQRHLYLMLKEDYDSSLLIPTIKKAFSQNPTMTRQKLLPLVLQWLMEGETVVSELEKPSKSKKVSAIKVVKPSDWDSLPDTDLRYIYSQRQPEKTMHERLKGKGVIVDMASLFKQAG
notes: TnsC, transposition protein of the bacterial transposon Tn7, residues 1 to 555 (full-length is 555 aa); TnsC was cloned into pPC86 (ProQuest Two-Hybrid System); also called full-length TnsC; source: yeast two-hybrid fusion

- β-galactosidase activity (TnsD (1 to 507) wt): 1
B3: TnsC (1 to 480) (domain or fragment, E. coli (transposon Tn7), UniProt P05846 1-480, looked up)
chain: MSATRIQAVYRDTGVEAYRDNPFIEALPPLQESVNSAASLKSSLQLTSSDLQKSRVIRAHTICRIPDDYFQPLGTHLLLSERISVMIRGGYVGRNPKTGDLQKHLQNGYERVQTGELETFRFEEARSTAQSLLLIGCSGSGKTTSLHRILATYPQVIYHRELNVEQVVYLKIDCSHNGSLKEICLNFFRALDRALGSNYERRYGLKRHGIETMLALMSQIANAHALGLLVIDEIQHLSRSRSGGSQEMLNFFVTMVNIIGVPVMLIGTPKAREIFEADLRSARRGAGFGAIFWDPIQQTQRGKPNQEWIAFTDNLWQLQLLQRKDALLSDEVRDVWYELSQGVMDIVVKLFVLAQLRALALGNERITAGLLRQVYQDELKPVHPMLEALRSGIPERIARYSDLVVPEIDKRLIQLQLDIAAIQEQTPEEKALQELDTEDQRHLYLMLKEDYDSSLLIPTIKKAFSQNPTMTRQKLLPLVL
notes: TnsC of transposon Tn7, residues 1 to 480; also called TnsC with deletion of 75 amino acids from the C terminus; source: yeast two-hybrid fusion

- β-galactosidase activity (TnsD (1 to 507) wt): 0.2
B4: TnsC (1 to 293) (domain or fragment, E. coli (transposon Tn7), UniProt P05846 1-293, looked up)
chain: MSATRIQAVYRDTGVEAYRDNPFIEALPPLQESVNSAASLKSSLQLTSSDLQKSRVIRAHTICRIPDDYFQPLGTHLLLSERISVMIRGGYVGRNPKTGDLQKHLQNGYERVQTGELETFRFEEARSTAQSLLLIGCSGSGKTTSLHRILATYPQVIYHRELNVEQVVYLKIDCSHNGSLKEICLNFFRALDRALGSNYERRYGLKRHGIETMLALMSQIANAHALGLLVIDEIQHLSRSRSGGSQEMLNFFVTMVNIIGVPVMLIGTPKAREIFEADLRSARRGAGFGAIFW
notes: TnsC of transposon Tn7, residues 1 to 293; source: yeast two-hybrid fusion

— article PMC2918618, “Characterization of the TnsD-attTn7 complex that promotes site-specific insertion of Tn7” (Mobile DNA, 2010)
